Measured values: publication PMC12509757 (2025)

Molecular target: BSA (Bos taurus (Bovine), UniProt P02769)
Assay: co-sedimentation (ultracentrifugation pelleting, immunoblot), BSA in place of microtubules as negative control

Sequence of BSA (P02769 25-607): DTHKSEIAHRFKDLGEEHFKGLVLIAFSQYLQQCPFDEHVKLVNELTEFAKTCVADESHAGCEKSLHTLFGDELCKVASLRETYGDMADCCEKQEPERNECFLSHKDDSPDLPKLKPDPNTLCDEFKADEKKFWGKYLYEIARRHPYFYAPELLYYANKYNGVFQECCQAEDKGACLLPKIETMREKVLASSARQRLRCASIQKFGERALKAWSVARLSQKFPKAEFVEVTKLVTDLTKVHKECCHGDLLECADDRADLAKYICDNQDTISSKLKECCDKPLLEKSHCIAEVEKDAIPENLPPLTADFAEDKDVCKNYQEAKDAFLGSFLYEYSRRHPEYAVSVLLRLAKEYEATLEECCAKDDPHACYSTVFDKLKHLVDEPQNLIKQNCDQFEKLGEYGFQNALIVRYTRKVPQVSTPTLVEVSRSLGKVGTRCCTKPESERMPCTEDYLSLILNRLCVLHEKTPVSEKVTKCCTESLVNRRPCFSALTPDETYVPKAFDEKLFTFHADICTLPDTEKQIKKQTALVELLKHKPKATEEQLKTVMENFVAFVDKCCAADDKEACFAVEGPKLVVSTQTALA

B1: His GST BAR-PH (aa 1-388) of ARHGAP10, WT (protein)
chain: MGLQPLEFSDCYLDSPWFRERIRAHEAELERTNKFIKELIKDGKNLIAATKSLSVAQRKFAHSLRDFKFEFIGDAVTDDERCIDASLREFSNFLKNLEEQREIMALSVTETLIKPLEKFRKEQLGAVKEEKKKFDKETEKNYSLIDKHLNLSAKKKDSHLQEADIQVEQNRQHFYELSLEYVCKLQEIQERKKFEFVEPMLSFFQGMFTFYHQGHELAKDFNHYKMELQINIQNTRNRFEGTRSEVEELMNKIRQNPKDHKRASQFTAEGYLYVQEKRPAPFGSSWVKHYCMYRKAAKKFNMIPFEHRSGGKLGDGEVFFLKECTKRHTDSIDRRFCFDIEAADRPGVSLTMQAFSEEERKQWLEALGGKEALSHSFNTAIIPRPEGN
B1: no binding.
